The record followed here is the DeepSol protein solubility set.

This series is described as follows: soluble on expression in E. coli; label from the status in PepcDB or PDB records.
As for “GSSHHHHHHMGNVFDYEDIQLIPAKCIVNSRSECDTTVTLGKHKFKLPVVPANMQTIIDERIATYLAENNYFYIMHRFQPEKRISFIRDMQSRGLIASISVGVKEDEYEFVQQLAAEHLTPEYITIDIAHGHSNAVINMIQHIKKHLPESFVIAGNVGTPEAVRELENAGADATKVGIGPGKVCITKIKTGFGTGGWQLAALRWCAKAASKPIIADGGIRTNGDVAKSIRFGATMVMIGSLFAGHEESPGETIEKDGKLYKEYFGSASEFQKGEKKNVEGKKMFVEHKGSLEDTLIEMEQDLQSSISYAGGTKLDSIRTVDYVVVKNSIFNGDKVY”, the “soluble on expression in E. coli” value is “soluble”. As to “MGSDKIHHHHHHVKIRLALPQDVDLLAMLEKKHLNDELASANMGLQGQAFSHSELSELVQRHWVVVAQVEQQIVGYVIAGRWGFFEHWPIYRTLLNRLGQLDWDGPKLTKTNSCQYGPIWVQQAYRGQGIFEALVSEIRRQVAPHFSYMLTFIAEDNERSFAAHSGKAHMQVVDFFTVSARDYYLMAAKTQA”, the “soluble on expression in E. coli” value is listed as “not soluble”. As for “MNANYVSKKPYIVTIACTKGGSAKSTNAANIGAFCADHGLRTLLIDTDTQPTLSSYYSLAKTAPGGIYEFLLQRDVEPSHIVSQTSIKNLDLIQSNDPSNNVSHMLRNAPDGSIRFSHLIKSINNYDVIVIDTRGTRDITVDMSVLAADILFCPILPQILSAKEFIRGTIGMYQDLQTFESFGFKLPPLKAIANGVDNTNDVKFVMQKLHTLFANTFDESKTLLDFSIPYHVAYREAVTYALPVYRHSAVEYPVMQQLCCLLLPQFKENFEKPMQRGLEHHHHHH”, the entry is “soluble”; as for “MGSDKIHHHHHHMKILIKQDFDTMSEWAKMLLLSTMSQDKRVNLSITAGKTPALVYQKLASIVKNSSDFDNVHYYNFDEIPVPHQKEGITLTDLRTLYLTPAEISEQNIHPLTVENFQQQEQRIADAGGLDLMLIGLGADGHFCGNMPTTTHFKNETYQVTVTGSEPWFVPEMMQPGMTFVTMGPASIMKVKHLVLIVNGEQKAQMVKQVLQGPVTETYPASILQLHPNLTVLLDEAAASQLEK”, “not soluble”; as for “MYQEIKGVRVWGDPIENAVDQAVTCAQHGDVEQVLLMADHHKGYSQPVGGVVVYRNQISPSGVGYDIACGNKAVKTNVKYVDIKDQLSKIMDELAQSISFGVGRSNREKVEHDLFDDSDWSVYQEIGKQEHDNLKTLAKKQLGTVGSGNHFVDLFVEEATGDVWVANHFGSRGFGHKTASGFMNLAKGVKFSDKVKGERMEDAPTLLDLDSEIGDMYYRAMQLAGKYAYAGRDYVIQKVLDILQAEAVFSVHNHHNFAWKETHNGEEYVIVRKGATPSAPNQWGFIGGSMGDISVIVRGVDSEENRDAFYSTVHGAGRIMSRTEAAGKMNWKTRTRSGGKITPDQMKQAIKEYGVELRGGGTDESPFVYKNLADVLEAHKQTLSIEHVLKPIGVCMAGEGEFDPYKDMAGDPLEHHHHHH”, “soluble”. The same measure for “MSDVIEQYFVKNEPYYRPVADEVKLYEAAYSVRMPMMLKGPTGCGKTRFVEYMAWKLGKPLITVACNEDMTASDLVGRFLLDAQGTRWQDGPLTTAARYGAICYLDEVVEARQDTTVVIHPLTDNRRVLPLEKKGELVGAHPDFQLVISYNPGYQSLMKDLKQSTKQRFGALDFNYPQHDIETEIVSHETGIDSAIADKLVSIAERARNLKGHGLDEGISTRMLIYAGNLIAKGVDVHAACRMALVRPITDDPDMRDALDAAVTTFFLEHHHHHH”: “soluble”; for “MTERKIFNRLKSVLAEKGKTNLWLTETLDKNKTTVSKWCTNDVQPSLETLFDIAEALNVDVRELIVSTKR”: “soluble”. As for “MSLPGNNSAKGTATGNATALWRNAQLATLNPAMDGIGAVENAVIAVRNGRIAFAGPESDLPDDLSTADETTDCGGRWITPALIDCHTHLVFGGNRAMEFEMRLNGATYEEIAKAGGGIVSSVRDTRALSDEVLVAQALPRLDTLLSEGVSTIEIKSGYGLDIETELKMLRVARRLETLRPVRIVTSYLAAHATPADYKGRNADYITDVVLPGLEKAHAEGLADAVDGFCEGIAFSVKEIDRVFAAAQQRGLPVKLHAEQLSNLGGAELAASYNALSADHLEYLDETGAKALAKAGTVAVLLPGAFYALREKQLPPVQALRDAGAEIALATDCNPGTSPLTSLLLTMNMGATLFRMTVEECLTATTRNAAKALGLLAETGTLEAGKSADFAIWDIERPAELVYRIGFNPLHARIFKGQKVSPEGHHHHHH”, the “soluble on expression in E. coli” value is reported as “soluble”.
